Laboratory results taken from patent US20240377400A1, “METHODS FOR TREATING A SUBTYPE OF COLORECTAL CANCER” (Cornell University, priority 2021, published 2024).

Test system: Prkci^f/fPrkcz^f/f; Villin-Cre tumors
Assay: Endogenous Prkci^f/fPrkcz^f/f; Villin-Cre tumors treated with PEGPH20: histology, tumor burden, Quant-seq
Assay type: in vivo, mouse
Description: FIGS. 9E-9O illustrate Prkci^f/fPrkcz^f/f; Villin-Cre mice (mOle and female, 11-week-old) treated with Veh (n=10) or PEGPH20 (n=12), 0.0375 mg/kg for 3 weeks. Experimental design (E); IHC HA, Masson's trichrome, and αSMA(F); staining quantification (n=5) (G); macroscopic images of tumors (H); total tumor number, tumor size, and tumor load (I); quantification of cancer incidence (J); and sessile serrated lesions (SSL) and carcinoma quantification of tumors (K). Scale bars, 50 μm (F), 10 mm (H). The red arrow denotes tumors>5 mm (H). (L-N) GSEA of transcriptomic data from Quant-seq on PEGPH20-treated tumors versus Veh (n=3) using compilation H (MSigDB) (L), stroma-related signatures (M) and serrated-related signatures (N). (O) GSEA plots of the indicated gene signatures for PEGPH20-treated tumors versus Veh (n=3). Results are shown as mean±SEM *p<0.05, **p<0.01, ***p<0.001, ****p<0.0001. See also FIG. 16.
Animal handling and experimental procedures conformed to institutional guidelines and were approved by the Sanford-Burnham-Prebys Medical Discovery Institute Institutional Animal Care and Use Committee, and by the Weill Cornell Medicine Institutional Animal Care and Use Committee. Prkci^f/fPrkcz^f/f, Villin-Cre, Prkci^f/fPrkcz^f/f; Villin-Cre and Villin-CreERT2 mice were previously described (el Marjou et al., 2004; Madison et al., 2002; Nakanishi et al., 2018) Prkci^f/fPrkcz^f/f; Villin-CreERT2 mice were generated by breeding Prkci^f/fPrkcz^f/f mice with Villin-CreERT2 (Jackson Laboratory, stock number 020282) mice. All mouse strains were generated in a C57BL/6 background and were born and maintained under pathogen-free conditions. For PEGPH20 treatment, 11-week-old Prkci^f/fPrkcz^f/f; Villin-Cre were retro-orbitally injected twice a week for 3 weeks with a dose of 0.0375 mg/kg of PEGPH20 (Halozyme Therapeutics), until they were sacrificed. Control mice were treated with vehicle. For xenograft experiments, 6-7 week-old male C57BL/6 were purchased from Charles River Labs (Wilmington, MA, USA). All mice were maintained on food and water ad libitum and were age-matched and co-housed for all experiments. Mice were sacrificed and small intestine, colon, tumors or other organs were collected for analysis. All genotyping was done by PCR. Age- and sex-matched mice were used for all experiments
Tissues from indicated mice were isolated, rinsed in ice-cold PBS, fixed in 10% neutral buffered formalin overnight at 4° C., dehydrated, and embedded in paraffin. Sections (5 μm) were stained with hematoxylin and eosin (H&E). For immunohistochemistry, sections were deparaffinized, rehydrated, and then treated for antigen retrieval. After blocking in Protein Block Serum-Free solutions (DAKO), tissues were incubated with primary antibody overnight at 4° C. followed by incubation with biotinylated secondary antibody. Endogenous peroxidase was quenched in 3% H2O2 in water for 10 minutes at room temperature. Antibodies were visualized with avidin-biotin complex (Vectastain Elite; Vector Laboratories) using diaminobenzidine as the chromogen. Stained sections were analyzed with a Zeiss light microscope supplemented with Zen 3.3 Bule edition software. For immunofluorescence, the signal was visualized using the OPAL™ 4-Color Manual IHC Kit (Akoya Biosciences, MA), which allows simultaneous detection of multiple targets in the same image. Fluorophores Opal 520, Opal 570, and TSA Plus Cyanine 5 were used, and the sections were counterstained with Spectral DAPI.
Total RNA was extracted using Quick-RNA MiniPrep kit (Zymo Research). Libraries were prepared from 200 ng of total RNA using the QuantSeq 3′ mRNA-Seq Library Prep Kit FWD for Illumina from Lexogen, and optional UMIs (Vienna, Austria). Barcoded libraries were pooled, and single end sequenced (1×75) on the Illumina NextSeq 500 using the High output V2.5 kit (Illumina Inc., San Diego CA).
For 3′RNA-Seq, read data was processed with the BlueBee Genomics Platform (BlueBee, San Mateo, CA). […]

[1] = small intestine, PEGPH20 0.0375 mg/kg, 3 weeks

B1: PEGPH20: a PEGylated version of human recombinant PH20 hyaluronidase; clinical-grade pegylated hyaluronidase (Halozyme Therapeutics) (protein, UniProt P38567 36-490, looked up)
Hyaluronidase PH-20: LNFRAPPVIPNVPFLWAWNAPSEFCLGKFDEPLDMSLFSFIGSPRINATGQGVTIFYVDRLGYYPYIDSITGVTVNGGIPQKISLQDHLDKAKKDITFYMPVDNLGMAVIDWEEWRPTWARNWKPKDVYKNRSIELVQQQNVQLSLTEATEKAKQEFEKAGKDFLVETIKLGKLLRPNHLWGYYLFPDCYNHHYKKPGYNGSCFNVEIKRNDDLSWLWNESTALYPSIYLNTQQSPVAATLYVRNRVREAIRVSKIPDAKSPLPVFAYTRIVFTDQVLKFLSQDELVYTFGETVALGASGIVIWGTLSIMRSMKSCLLLDNYMETILNPYIINVTLAAKMCSQVLCQEQGVCIRKNWNSSDYLHLNPDNFAIQLEKGGKFTVRGKPTLEDLEQFSEKFYCSCYSTLSCKEKADVKDTDAVDVCIADGVCIDAFLKPPMETEEPQIFYNASPSTLS
modifications: PEGylated
- signatures related to invasion and tumor progression (EMT, myogenesis, angiogenesis, TGFβ signaling), stromal activation, serrated tumorigenesis and the CMS4 subtype (GSEA of Quant-seq, treated versus Veh): decrease
- IFN and allograft rejection signatures (GSEA of RNAseq, endogenous tumors): enrichment
- stromal HA accumulation (PEGPH20 0.0375 mg/kg twice a week, 3 weeks, IHC): eliminated
- cancer incidence in the small intestine (PEGPH20 0.0375 mg/kg, 3 weeks): lower
- invasive carcinomas (PEGPH20 0.0375 mg/kg, 3 weeks): reduced
- sessile serrated lesions (SSL) (PEGPH20 0.0375 mg/kg, 3 weeks): fewer
- collagen deposition and αSMA expression (PEGPH20 0.0375 mg/kg, 3 weeks, Masson's trichrome, IHC): reduced
- intestinal and colon tumors (figure legend title, FIGS. 16A-16E): reduces
- colon tumorigenesis (proximal colon tumors): reduced
- average tumor size [1]: significant reduction
- tumor load [1]: significant reduction
- tumor number [1]: significant reduction
